Assay [1] concerns the target T1, hIL27Ra-his (Origene, Catalog #TP307012) (human, UniProt Q6UWB1 33-516, limits assumed).
T1 construct: Bought his-tagged cytokine receptor used as SPR analyte; also called human IL27 receptor subunit alpha; not shown: his tag
T1 sequence: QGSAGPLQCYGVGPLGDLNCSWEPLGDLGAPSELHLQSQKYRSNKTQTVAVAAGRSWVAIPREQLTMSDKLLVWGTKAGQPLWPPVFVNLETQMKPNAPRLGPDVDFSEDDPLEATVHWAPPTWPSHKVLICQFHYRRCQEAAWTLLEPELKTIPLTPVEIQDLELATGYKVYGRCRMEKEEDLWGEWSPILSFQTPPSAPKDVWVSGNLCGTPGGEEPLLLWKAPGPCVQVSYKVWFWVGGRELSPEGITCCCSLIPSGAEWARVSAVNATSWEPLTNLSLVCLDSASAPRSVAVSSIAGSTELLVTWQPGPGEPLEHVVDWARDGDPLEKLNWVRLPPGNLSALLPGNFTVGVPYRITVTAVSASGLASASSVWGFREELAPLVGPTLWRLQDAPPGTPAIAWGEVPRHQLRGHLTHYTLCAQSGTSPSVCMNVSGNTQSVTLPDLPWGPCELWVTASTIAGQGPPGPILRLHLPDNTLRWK
The assay can be described thus: SPR Biacore T200; ratio experimental/calculated Rmax. On the procedure:
(§1) All experiments were conducted in 10 mM Hepes, 150 mMv NaCl, 0.05% (v/v) Polysorbate 20 (PS20) and 3 mMv EDTA (HBS-EP+ buffer) on a Biacore® T200 instrument equipped with a Protein A chip (Cytiva). Mono-Fc VHH ligands were flowed at 5 μl/min for variable time ranging from 18 to 300 seconds, reaching the capture loads listed in the tables below.
(§2) Following ligand capture, injections of a 2-fold dilution series of his-tagged cytokine receptors typically comprising at least five concentrations between 1 μM and 1 nM were performed in either high performance or single cycle kinetics mode. Surface regeneration was achieved by flowing 10 mMv glycine-HCl, pH 1.5 (60 seconds, 50 μL/min). Buffer-subtracted sensograms were processed with Biacore® T200 Evaluation Software and globally fit with a 1:1 Langmuir binding model (bulk shift set to zero) to extract kinetics and affinity constants (ka, kd, KD). RMAX<100 RU indicates surface density compatible with kinetics analysis. Calculated Rmax were generated using the equation Rmax=Load (RU)×valency of ligand×(Molecular weight of analyte/Molecular weight of ligand. Surface activity was defined as the ratio experimental/calculated Rmax. See tables below for sample information and experimental results.

Assay [2] addresses T1, hIL27Ra-his (Origene, Catalog #TP307012). Nature of the assay: SPR Biacore T200; mono-Fc VHH on Protein A chip, hIL27Ra-his analyte. On the procedure: as §1, §2
For orientation: SPR reads the build-up and loss of mass on a sensor chip optically.

B1: 25-DR602 (SEQ ID NO. 250), anti-hIL27Ra Mono-Fc VHH (Fc fusion)
chain: QVQLQESGGGSVQAGGSLRLSCRASGSTYSNYCLGWFRQITGKEREGVAVINWVGGMLYFADSVKGRFTVSQDQAKNTVYLQMNSLKPEDTAMYYCAAESVSSFSCGGWLTRPDRVPYWGQGTQVTVSS
notes: Mono-Fc VHH ligand captured on a Protein A chip; not shown: mono-Fc part
Turning to B1, in assay [1], the “Surface Activity” value is 20%. Further, in assay [2], binding was characterised by a dissociation constant (Kd) of 5.2 nM; the koff (as a rule, the rate constant with which the complex falls apart) was 0.00076 s⁻¹; the kon (usually a measure of how fast the partners come together) was determined as 150000 M⁻¹ s⁻¹.

B2: 26-DR603 (SEQ ID NO. 251), anti-hIL27Ra Mono-Fc VHH (Fc fusion)
chain: QVQLQESGGGLVQPGGSLRLSCAASGFTFSLSSMSWVRQAPGKGLEWVSAISSGGASTYYTDSVKGRFTISRDNAKNMLYLQLNSLKTEDTAMYYCAKGGSGYGDASRMTSPGSQGTQVTVSS
notes: as for B1
On to B2, for which the “Surface Activity” value in assay [1] was 18%. Further, in assay [2], the dissociation constant Kd (as a rule, the equilibrium constant for the complex coming apart) came out at 6.1 nM; the koff was found to be 0.00077 s⁻¹; the kon came out at 130000 M⁻¹ s⁻¹.

The values are drawn from patent US20240002542A1 (SYNTHEKINE, published 2024).
